Experiments:
Assay in all cases: Kd (EC50 corrected by depletion factor)
FASTKD2 = target: T1, FASTKD2 (UniProt Q9NYY8)
T1 sequence: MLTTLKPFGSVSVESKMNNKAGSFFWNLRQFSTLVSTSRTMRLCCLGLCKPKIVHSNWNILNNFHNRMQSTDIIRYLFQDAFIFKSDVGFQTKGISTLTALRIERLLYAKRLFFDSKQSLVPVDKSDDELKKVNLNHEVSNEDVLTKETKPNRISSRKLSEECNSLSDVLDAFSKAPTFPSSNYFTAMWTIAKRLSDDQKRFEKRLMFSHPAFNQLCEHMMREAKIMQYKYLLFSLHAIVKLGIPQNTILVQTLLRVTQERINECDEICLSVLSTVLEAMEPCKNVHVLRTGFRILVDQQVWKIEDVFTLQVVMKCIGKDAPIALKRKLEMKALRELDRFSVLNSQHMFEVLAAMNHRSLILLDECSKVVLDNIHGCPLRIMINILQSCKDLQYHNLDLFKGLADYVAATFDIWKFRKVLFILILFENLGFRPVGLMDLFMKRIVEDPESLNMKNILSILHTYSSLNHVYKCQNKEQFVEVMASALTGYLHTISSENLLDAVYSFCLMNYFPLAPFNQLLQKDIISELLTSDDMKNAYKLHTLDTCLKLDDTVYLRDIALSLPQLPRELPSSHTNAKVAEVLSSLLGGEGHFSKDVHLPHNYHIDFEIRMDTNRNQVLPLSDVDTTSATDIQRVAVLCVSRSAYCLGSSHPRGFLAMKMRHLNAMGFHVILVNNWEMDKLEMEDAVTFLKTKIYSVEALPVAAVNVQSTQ
Procedure, shortened: (§1)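 Over three biological replicates and two independent experiments, proteins captured on NHS-Sepharose beads carrying 5′-amino-C6 RNA oligos were quantified by label-free LC-MS/MS and normalised to the control. Capture lasted 30 min at 4°C and followed a 1 h pre-incubation at 4°C of HEK293-FT lysate (2.5 mg protein/well) with the same oligos in free form (0 nM to 30 μM). EC50 was taken from a four-parameter log-logistic fit, and Kd was EC50 corrected by a protein-dependent depletion factor.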

GNB2L1 = GNB2L1 (UniProt P63244)
Procedure, shortened: as §1

RPS12 = RPS12 (UniProt P25398)
Procedure, shortened: as §1

AASS = target: T2, AASS (UniProt Q9UDR5)
T2 sequence: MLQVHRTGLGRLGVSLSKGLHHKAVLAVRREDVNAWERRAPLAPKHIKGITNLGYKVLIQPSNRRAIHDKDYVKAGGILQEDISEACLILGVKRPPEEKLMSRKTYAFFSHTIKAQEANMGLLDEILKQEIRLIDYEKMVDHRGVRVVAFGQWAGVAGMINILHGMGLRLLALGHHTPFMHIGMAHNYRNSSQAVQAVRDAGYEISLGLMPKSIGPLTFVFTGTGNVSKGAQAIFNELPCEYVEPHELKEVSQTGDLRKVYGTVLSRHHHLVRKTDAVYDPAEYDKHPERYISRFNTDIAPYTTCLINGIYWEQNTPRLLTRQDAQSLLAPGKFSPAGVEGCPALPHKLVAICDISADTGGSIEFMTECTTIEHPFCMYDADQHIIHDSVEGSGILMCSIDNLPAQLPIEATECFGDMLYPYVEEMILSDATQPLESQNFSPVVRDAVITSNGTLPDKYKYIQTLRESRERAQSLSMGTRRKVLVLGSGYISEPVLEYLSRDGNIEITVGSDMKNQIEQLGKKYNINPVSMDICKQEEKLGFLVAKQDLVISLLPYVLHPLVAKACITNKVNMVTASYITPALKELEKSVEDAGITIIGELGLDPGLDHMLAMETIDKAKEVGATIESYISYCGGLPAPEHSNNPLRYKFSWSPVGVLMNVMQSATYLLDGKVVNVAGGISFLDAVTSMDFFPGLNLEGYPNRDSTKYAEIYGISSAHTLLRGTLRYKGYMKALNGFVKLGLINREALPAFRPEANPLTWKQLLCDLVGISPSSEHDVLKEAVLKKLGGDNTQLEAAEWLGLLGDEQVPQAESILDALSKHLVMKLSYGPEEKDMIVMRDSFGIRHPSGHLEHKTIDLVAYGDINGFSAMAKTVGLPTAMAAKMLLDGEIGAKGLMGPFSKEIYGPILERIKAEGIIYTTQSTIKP
Procedure, shortened: as §1

CXorf57 = CXorf57 (UniProt Q6NSI4)
Chain of CXorf57 (Q6NSI4 whole entry): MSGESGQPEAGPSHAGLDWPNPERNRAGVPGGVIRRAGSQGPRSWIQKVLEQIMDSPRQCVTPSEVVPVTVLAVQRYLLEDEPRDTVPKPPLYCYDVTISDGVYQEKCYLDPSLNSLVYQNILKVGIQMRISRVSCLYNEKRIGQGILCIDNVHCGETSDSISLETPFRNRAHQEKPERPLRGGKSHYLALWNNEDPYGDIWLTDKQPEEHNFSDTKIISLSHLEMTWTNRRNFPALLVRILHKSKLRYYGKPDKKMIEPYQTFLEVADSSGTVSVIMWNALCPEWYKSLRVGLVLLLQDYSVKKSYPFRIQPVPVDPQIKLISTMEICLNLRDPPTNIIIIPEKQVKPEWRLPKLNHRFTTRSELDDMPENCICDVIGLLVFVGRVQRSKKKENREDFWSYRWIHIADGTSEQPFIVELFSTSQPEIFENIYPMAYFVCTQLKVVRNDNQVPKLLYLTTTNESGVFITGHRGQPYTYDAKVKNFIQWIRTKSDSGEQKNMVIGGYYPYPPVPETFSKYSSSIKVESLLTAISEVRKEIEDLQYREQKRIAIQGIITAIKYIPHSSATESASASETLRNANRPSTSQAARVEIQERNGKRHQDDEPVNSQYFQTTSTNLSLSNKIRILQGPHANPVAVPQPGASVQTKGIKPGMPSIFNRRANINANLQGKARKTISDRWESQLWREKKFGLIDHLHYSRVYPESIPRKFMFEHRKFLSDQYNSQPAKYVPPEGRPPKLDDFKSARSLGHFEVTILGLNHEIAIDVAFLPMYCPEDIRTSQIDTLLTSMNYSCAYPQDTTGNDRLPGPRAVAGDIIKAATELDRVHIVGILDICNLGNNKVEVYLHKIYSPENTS
Procedure, shortened: as §1

PIP5K1A = PIP5K1A (UniProt Q99755)
Chain of PIP5K1A (Q99755 whole entry): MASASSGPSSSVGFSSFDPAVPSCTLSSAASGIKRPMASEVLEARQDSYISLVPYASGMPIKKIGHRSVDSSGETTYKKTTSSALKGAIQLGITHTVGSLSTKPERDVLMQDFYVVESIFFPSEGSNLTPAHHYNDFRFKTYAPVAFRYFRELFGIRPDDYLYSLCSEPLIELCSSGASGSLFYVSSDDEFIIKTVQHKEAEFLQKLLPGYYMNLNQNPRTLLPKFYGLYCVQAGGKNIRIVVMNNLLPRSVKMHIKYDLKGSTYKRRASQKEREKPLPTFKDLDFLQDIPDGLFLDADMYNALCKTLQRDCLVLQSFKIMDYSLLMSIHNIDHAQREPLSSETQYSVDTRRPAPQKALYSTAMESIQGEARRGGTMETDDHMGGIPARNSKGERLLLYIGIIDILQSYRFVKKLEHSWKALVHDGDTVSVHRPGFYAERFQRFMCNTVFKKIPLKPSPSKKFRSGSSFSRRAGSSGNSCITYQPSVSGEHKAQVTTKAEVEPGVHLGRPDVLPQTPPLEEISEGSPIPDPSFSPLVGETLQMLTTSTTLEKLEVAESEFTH
Procedure, shortened: as §1

SRSF11 = target: T3, SRSF11 (UniProt Q05519)
T3 sequence: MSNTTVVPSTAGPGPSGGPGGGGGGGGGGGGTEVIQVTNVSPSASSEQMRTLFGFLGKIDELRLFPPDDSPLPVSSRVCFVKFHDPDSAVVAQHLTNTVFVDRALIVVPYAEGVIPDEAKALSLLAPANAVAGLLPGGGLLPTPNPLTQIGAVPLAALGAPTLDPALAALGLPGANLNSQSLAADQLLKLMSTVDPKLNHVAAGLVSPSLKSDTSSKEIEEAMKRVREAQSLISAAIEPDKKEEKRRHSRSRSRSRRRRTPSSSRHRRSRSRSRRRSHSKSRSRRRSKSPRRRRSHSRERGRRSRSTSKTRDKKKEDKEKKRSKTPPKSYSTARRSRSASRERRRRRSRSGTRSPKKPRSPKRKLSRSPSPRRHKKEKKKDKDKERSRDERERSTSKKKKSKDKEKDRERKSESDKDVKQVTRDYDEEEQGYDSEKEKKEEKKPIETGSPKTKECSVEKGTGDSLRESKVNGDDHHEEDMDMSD
Procedure, shortened: as §1

Sequence: UAUUUAU
- Kd (FASTKD2): 3890 nM

Sequence: CUGUCCU
- Kd (GNB2L1): 808 nM
- Kd (RPS12): 128 nM

Sequence: AAUAAA
- Kd (AASS): 1220 nM
- Kd (CXorf57): 1040 nM
- Kd (PIP5K1A): 467 nM
- Kd (SRSF11): 126 nM

Reference: the supplement of paper PMC6379048
